From patent EP4745153A1, “GLP-1, GIP AND GCG RECEPTOR […] USE THEREOF” (Jiangsu Hengrui Pharmaceuticals Co., Ltd., priority 2023, dated 2025)
Where two headings read alike, the source gives them in different places. Starred links: 1 amine or outer side, 2 acyl side, 3 side chain; linkers in the order of their positions; H or OH if unused. Non-standard residues stand in square brackets, D forms with d. Groups on a side chain read outwards from the residue. No end group written: not given here. *: point of attachment. C20 diacid = O=C(O)CCCCCCCCCCCCCCCCCCC(=O)*; C17 diacid = O=C(O)CCCCCCCCCCCCCCCC(=O)*; γGlu = O=C(O)[C@H](CCC(=O)[*:2])N[*:1]; αMeK = C[C@](N)(CCCCN)C(=O)O; Ac4c = NC1(C(=O)O)CCC1; AEEA = NCCOCCOCC(=O)O; Aib = CC(C)(N)C(=O)O

T1: human glucose-dependent insulinotropic polypeptide receptor (human, UniProt P48546 22-466)
T1 sequence (looked up): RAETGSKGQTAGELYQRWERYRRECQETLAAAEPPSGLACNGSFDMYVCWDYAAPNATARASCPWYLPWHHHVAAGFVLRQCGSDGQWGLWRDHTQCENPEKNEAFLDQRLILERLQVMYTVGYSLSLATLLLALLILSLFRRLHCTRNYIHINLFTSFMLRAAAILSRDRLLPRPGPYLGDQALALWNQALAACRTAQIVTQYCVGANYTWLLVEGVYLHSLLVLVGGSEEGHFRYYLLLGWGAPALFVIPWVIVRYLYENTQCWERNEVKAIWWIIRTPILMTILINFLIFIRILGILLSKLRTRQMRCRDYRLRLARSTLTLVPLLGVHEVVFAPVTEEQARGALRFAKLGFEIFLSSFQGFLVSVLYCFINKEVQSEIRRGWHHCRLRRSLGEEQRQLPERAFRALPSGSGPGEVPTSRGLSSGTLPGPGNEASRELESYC

B1: Compound No. 0118 (peptide)
peptide: H[Aib]HGTFTSDYS[αMeK]LLEK([AEEA-AEEA-γGlu-C17 diacid])IAAQEFVEWLLAGGPSSGAPPPS-NH2
modifications: N-terminus assumed
SMILES: CC[C@H](C)[C@H](NC(=O)[C@H](CCCCNC(=O)COCCOCCNC(=O)COCCOCCNC(=O)CC[C@H](NC(=O)CCCCCCCCCCCCCCCC(=O)O)C(=O)O)NC(=O)[C@H](CCC(=O)O)NC(=O)[C@H](CC(C)C)NC(=O)[C@H](CC(C)C)NC(=O)[C@](C)(CCCCN)NC(=O)[C@H](CO)NC(=O)[C@H](Cc1ccc(O)cc1)NC(=O)[C@H](CC(=O)O)NC(=O)[C@H](CO)NC(=O)[C@@H](NC(=O)[C@H](Cc1ccccc1)NC(=O)[C@@H](NC(=O)CNC(=O)[C@H](Cc1c[nH]cn1)NC(=O)C(C)(C)NC(=O)[C@@H](N)Cc1c[nH]cn1)[C@@H](C)O)[C@@H](C)O)C(=O)N[C@@H](C)C(=O)N[C@@H](C)C(=O)N[C@@H](CCC(N)=O)C(=O)N[C@@H](CCC(=O)O)C(=O)N[C@@H](Cc1ccccc1)C(=O)N[C@H](C(=O)N[C@@H](CCC(=O)O)C(=O)N[C@@H](Cc1c[nH]c2ccccc12)C(=O)N[C@@H](CC(C)C)C(=O)N[C@@H](CC(C)C)C(=O)N[C@@H](C)C(=O)NCC(=O)NCC(=O)N1CCC[C@H]1C(=O)N[C@@H](CO)C(=O)N[C@@H](CO)C(=O)NCC(=O)N[C@@H](C)C(=O)N1CCC[C@H]1C(=O)N1CCC[C@H]1C(=O)N1CCC[C@H]1C(=O)N[C@@H](CO)C(N)=O)C(C)C
B2: Compound No. 0114 (peptide)
peptide: Y[Aib]QGTFTSDYS[αMeK]LLEK([AEEA-AEEA-γGlu-C20 diacid])KAAQEFVEWLLAGGPSSGAPPPS-NH2
modifications: N-terminus assumed
SMILES: CC(C)C[C@H](NC(=O)[C@H](CC(C)C)NC(=O)[C@H](Cc1c[nH]c2ccccc12)NC(=O)[C@H](CCC(=O)O)NC(=O)[C@@H](NC(=O)[C@H](Cc1ccccc1)NC(=O)[C@H](CCC(=O)O)NC(=O)[C@H](CCC(N)=O)NC(=O)[C@H](C)NC(=O)[C@H](C)NC(=O)[C@H](CCCCN)NC(=O)[C@H](CCCCNC(=O)COCCOCCNC(=O)COCCOCCNC(=O)CC[C@H](NC(=O)CCCCCCCCCCCCCCCCCCC(=O)O)C(=O)O)NC(=O)[C@H](CCC(=O)O)NC(=O)[C@H](CC(C)C)NC(=O)[C@H](CC(C)C)NC(=O)[C@](C)(CCCCN)NC(=O)[C@H](CO)NC(=O)[C@H](Cc1ccc(O)cc1)NC(=O)[C@H](CC(=O)O)NC(=O)[C@H](CO)NC(=O)[C@@H](NC(=O)[C@H](Cc1ccccc1)NC(=O)[C@@H](NC(=O)CNC(=O)[C@H](CCC(N)=O)NC(=O)C(C)(C)NC(=O)[C@@H](N)Cc1ccc(O)cc1)[C@@H](C)O)[C@@H](C)O)C(C)C)C(=O)N[C@@H](C)C(=O)NCC(=O)NCC(=O)N1CCC[C@H]1C(=O)N[C@@H](CO)C(=O)N[C@@H](CO)C(=O)NCC(=O)N[C@@H](C)C(=O)N1CCC[C@H]1C(=O)N1CCC[C@H]1C(=O)N1CCC[C@H]1C(=O)N[C@@H](CO)C(N)=O
B3: Compound No. 0145 (peptide)
peptide: H[Aib]HGTFTSDLSILLEK([AEEA-AEEA-γGlu-C20 diacid])QAA[Ac4c]EFVEWLLA[dE]GPSSGAPPPS-NH2
modifications: N-terminus assumed
SMILES: CC[C@H](C)[C@H](NC(=O)[C@H](CO)NC(=O)[C@H](CC(C)C)NC(=O)[C@H](CC(=O)O)NC(=O)[C@H](CO)NC(=O)[C@@H](NC(=O)[C@H](Cc1ccccc1)NC(=O)[C@@H](NC(=O)CNC(=O)[C@H](Cc1c[nH]cn1)NC(=O)C(C)(C)NC(=O)[C@@H](N)Cc1c[nH]cn1)[C@@H](C)O)[C@@H](C)O)C(=O)N[C@@H](CC(C)C)C(=O)N[C@@H](CC(C)C)C(=O)N[C@@H](CCC(=O)O)C(=O)N[C@@H](CCCCNC(=O)COCCOCCNC(=O)COCCOCCNC(=O)CC[C@H](NC(=O)CCCCCCCCCCCCCCCCCCC(=O)O)C(=O)O)C(=O)N[C@@H](CCC(N)=O)C(=O)N[C@@H](C)C(=O)N[C@@H](C)C(=O)NC1(C(=O)N[C@@H](CCC(=O)O)C(=O)N[C@@H](Cc2ccccc2)C(=O)N[C@H](C(=O)N[C@@H](CCC(=O)O)C(=O)N[C@@H](Cc2c[nH]c3ccccc23)C(=O)N[C@@H](CC(C)C)C(=O)N[C@@H](CC(C)C)C(=O)N[C@@H](C)C(=O)N[C@H](CCC(=O)O)C(=O)NCC(=O)N2CCC[C@H]2C(=O)N[C@@H](CO)C(=O)N[C@@H](CO)C(=O)NCC(=O)N[C@@H](C)C(=O)N2CCC[C@H]2C(=O)N2CCC[C@H]2C(=O)N2CCC[C@H]2C(=O)N[C@@H](CO)C(N)=O)C(C)C)CCC1
B4: Compound No. 0117 (peptide)
peptide: H[Aib]HGTFTSDYS[αMeK]LLEK([AEEA-AEEA-γGlu-C20 diacid])QAAQEFVEWLLAGGPSSGAPPPS-NH2
modifications: N-terminus assumed
SMILES: CC(C)C[C@H](NC(=O)[C@H](CC(C)C)NC(=O)[C@H](Cc1c[nH]c2ccccc12)NC(=O)[C@H](CCC(=O)O)NC(=O)[C@@H](NC(=O)[C@H](Cc1ccccc1)NC(=O)[C@H](CCC(=O)O)NC(=O)[C@H](CCC(N)=O)NC(=O)[C@H](C)NC(=O)[C@H](C)NC(=O)[C@H](CCC(N)=O)NC(=O)[C@H](CCCCNC(=O)COCCOCCNC(=O)COCCOCCNC(=O)CC[C@H](NC(=O)CCCCCCCCCCCCCCCCCCC(=O)O)C(=O)O)NC(=O)[C@H](CCC(=O)O)NC(=O)[C@H](CC(C)C)NC(=O)[C@H](CC(C)C)NC(=O)[C@](C)(CCCCN)NC(=O)[C@H](CO)NC(=O)[C@H](Cc1ccc(O)cc1)NC(=O)[C@H](CC(=O)O)NC(=O)[C@H](CO)NC(=O)[C@@H](NC(=O)[C@H](Cc1ccccc1)NC(=O)[C@@H](NC(=O)CNC(=O)[C@H](Cc1c[nH]cn1)NC(=O)C(C)(C)NC(=O)[C@@H](N)Cc1c[nH]cn1)[C@@H](C)O)[C@@H](C)O)C(C)C)C(=O)N[C@@H](C)C(=O)NCC(=O)NCC(=O)N1CCC[C@H]1C(=O)N[C@@H](CO)C(=O)N[C@@H](CO)C(=O)NCC(=O)N[C@@H](C)C(=O)N1CCC[C@H]1C(=O)N1CCC[C@H]1C(=O)N1CCC[C@H]1C(=O)N[C@@H](CO)C(N)=O

Experiments:
Test in all cases: cell-based or functional assay
[1] = target: T1, human glucose-dependent insulinotropic …
[2] = target: human glucagon-like peptide-1 receptor (human, UniProt P43220 24-463)
[3] = target: T1, human glucose-dependent insulinotropic …; remark: listed apart in the source
human glucagon receptor = human glucagon receptor (human, UniProt P47871 26-477)
Sequence of human glucagon receptor (P47871 26-477): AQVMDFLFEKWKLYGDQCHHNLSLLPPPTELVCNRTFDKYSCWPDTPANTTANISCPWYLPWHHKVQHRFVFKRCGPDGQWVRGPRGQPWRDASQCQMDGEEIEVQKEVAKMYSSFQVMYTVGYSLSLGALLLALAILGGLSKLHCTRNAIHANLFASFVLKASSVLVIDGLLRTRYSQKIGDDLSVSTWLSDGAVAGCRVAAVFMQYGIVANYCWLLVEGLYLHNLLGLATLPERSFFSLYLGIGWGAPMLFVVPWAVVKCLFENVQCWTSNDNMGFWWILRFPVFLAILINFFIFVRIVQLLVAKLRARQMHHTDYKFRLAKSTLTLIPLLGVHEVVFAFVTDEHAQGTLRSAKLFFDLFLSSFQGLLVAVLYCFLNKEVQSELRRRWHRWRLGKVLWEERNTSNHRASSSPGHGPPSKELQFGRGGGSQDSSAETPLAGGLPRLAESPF

Binder	Activity against human GIPR (EC50 nM) [1]	Activity against human GLP-1R (EC50 nM) [2]	Activity against human GIPR (EC50 nM) [3]	Activity against human GCGR (EC50 nM) (human glucagon receptor)
B1	0.004 nM	–	–	–
B2	0.01 nM	–	–	–
B3	–	0.057 nM	0.003 nM	0.143 nM
B4	0.003 nM	–	–	–
